± gives the standard deviation of the averaged measurements.
Legend:
hTERT-HMEC = assay: percentage of EdU-negative (G0-arrested) nuclei per well, 72 h; higher = more G0 arrest; conditions: reference: sequence is the full UniProt precursor, the tested protein was the secreted form or ectodomain
MCF7 = assay: as above; conditions: reference: sequence is the full UniProt precursor, the tested protein was the secreted form or ectodomain
[1] = protein concentration 0.0225 µM
[2] = protein concentration 0.01525 µM
[3] = protein concentration 0.1525 µM
[4] = protein concentration 0.00725 µM
[5] = protein concentration 0.0725 µM
[6] = protein concentration 0.0293325 µM
[7] = protein concentration 0.293325 µM
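Note: secreted proteins added to cultured cells, EdU pulse at the end, nuclei found by Hoechst imaging, EdU status from nuclear versus surrounding ring intensity ratio, PBS as neutral control.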

“MPRYVPLLLLLLLLRCSERGGGVNFGEKDAKVPGTWRDGVRVPGEGASWDSDRASPERRYGIVGLSQSISTKHPETSPKDSRIRENDVTADGRTTEDHITADPGTTEDSVTADPGTTEDNVTVDPGTTEGSVTADPATTKDYVSADPGTTKDSVTADPGTTENFVTADPGTTKDSITADPRTTEDSVTADPGTTKHSITVDPGTTEDSVTADPGTTKHSITADPGTTEDSVTADPGTTEDETTKHGDTHLL [E2RYF7]” was tested, and the “percentage of EdU-negative” value (hTERT-HMEC; [1]) was 5.3 ± 1.4%, the “percentage of EdU-negative” value (hTERT-HMEC; protein concentration 0.225 µM) was 5.54 ± 0.41% and the “percentage of EdU-negative” value (MCF7; [1]) was 23.6 ± 2.3%. For the same sequence, the “percentage of EdU-negative” value (MCF7; protein concentration 0.225 µM) was 24.8 ± 0.67%.

With “MPSLLVLTFSPCVLLGWALLAGGTGGGGVGGGGGGAGIGGGRQEREALPPQKIEVLVLLPQDDSYLFSLTRVRPAIEYALRSVEGNGTGRRLLPPGTRFQVAYEDSDCGNRALFSLVDRVAAARGAKPDLILGPVCEYAAAPVARLASHWDLPMLSAGALAAGFQHKDSEYSHLTRVAPAYAKMGEMMLALFRHHHWSRAALVYSDDKLERNCYFTLEGVHEVFQEEGLHTSIYSFDETKDLDLEDIVRNIQASERVVIMCASSDTIRSIMLVAHRHGMTSGDYAFFNIELFNSSSYGDGSWKRGDKHDFEAKQAYSSLQTVTLLRTVKPEFEKFSMEVKSSVEKQGLNMEDYVNMFVEGFHDAILLYVLALHEVLRAGYSKKDGGKIIQQTWNRTFEGIAGQVSIDANGDRYGDFSVIAMTDVEAGTQEVIGDYFGKEGRFEMRPNVKYPWGPLKLRIDENRIVEHTNSSPCKSSGGLEESAVTGIVVGALLGAGLLMAFYFFRKKYRITIERRTQQEESNLGKHRELREDSIRSHFSVA” the “percentage of EdU-negative” value (hTERT-HMEC; [1]) was 4.9 ± 0.22%, the “percentage of EdU-negative” value (hTERT-HMEC; protein concentration 0.225 µM) was 6.51 ± 0.27% and the “percentage of EdU-negative” value (MCF7; [1]) was 24.88 ± 0.14%. The “percentage of EdU-negative” value (MCF7; protein concentration 0.225 µM) was 24.5 ± 1%.

For “MPSSTAMAVGALSSSLLVTCCLMVALCSPSIPLEKLAQAPEQPGQEKREHASRDGPGRVNELGRPARDEGGSGRDWKSKSGRGLAGREPWSKLKQAWVSQGGGAKAGDLQVRPRGDTPQAEALAAAAQDAIGPELAPTPEPPEEYVYPDYRGKGCVDESGFVYAIGEKFAPGPSACPCLCTEEGPLCAQPECPRLHPRCIHVDTSQCCPQCKERKNYCEFRGKTYQTLEEFVVSPCERCRCEANGEVLCTVSACPQTECVDPVYEPDQCCPICKNGPNCFAETAVIPAGREVKTDECTICHCTYEEGTWRIERQAMCTRHECRQM [Q2TAL6]”, the “percentage of EdU-negative” value (hTERT-HMEC; [2]) was 5.49 ± 1.1%, the “percentage of EdU-negative” value (hTERT-HMEC; [3]) was 7.17 ± 0.096% and the “percentage of EdU-negative” value (MCF7; [2]) was 22.8 ± 3.1%. The “percentage of EdU-negative” value (MCF7; [3]) was 25.17 ± 0.21%.

For “MPSWALFMVTSCLLLAPQNLAQVSSQDVSLLASDSEPLKCFSRTFEDLTCFWDEEEAAPSGTYQLLYAYPREKPRACPLSSQSMPHFGTRYVCQFPDQEEVRLFFPLHLWVKNVFLNQTRTQRVLFVDSVGLPAPPSIIKAMGGSQPGELQISWEEPAPEISDFLRYELRYGPRDPKNSTGPTVIQLIATETCCPALQRPHSASALDQSPCAQPTMPWQDGPKQTSPSREASALTAEGGSCLISGLQPGNSYWLQLRSEPDGISLGGSWGSWSLPVTVDLPGDAVALGLQCFTLDLKNVTCQWQQQDHASSQGFFYHSRARCCPRDRYPIWENCEEEEKTNPGLQTPQFSRCHFKSRNDSIIHILVEVTTAPGTVHSYLGSPFWIHQAVRLPTPNLHWREISSGHLELEWQHPSSWAAQETCYQLRYTGEGHQDWKVLEPPLGARGGTLELRPRSRYRLQLRARLNGPTYQGPWSSWSDPTRVETATETAWISLVTALHLVLGLSAVLGLLLLRWQFPAHYRRLRHALWPSLPDLHRVLGQYLRDTAALSPPKATVSDTCEEVEPSLLEILPKSSERTPLPLCSSQAQMDYRRLQPSCLGTMPLSVCPPMAESGSCCTTHIANHSYLPLSYWQQP”, the “percentage of EdU-negative” value (hTERT-HMEC; [4]) was 4.77 ± 0.37%, the “percentage of EdU-negative” value (hTERT-HMEC; [5]) was 6.04 ± 0.21% and the “percentage of EdU-negative” value (MCF7; [4]) was 25.4 ± 0.65%. For the same sequence, the “percentage of EdU-negative” value (MCF7; [5]) was 26.02 ± 0.25%.

In the case of “MPVMRLFPCFLQLLAGLALPAVPPQQWALSAGNGSSEVEVVPFQEVWGRSYCRALERLVDVVSEYPSEVEHMFSPSCVSLLRCTGCCGDENLHCVPVETANVTMQLLKIRSGDRPSYVELTFSQHVRCECRHSPGRQSPDMPGDFRADAPSFLPPRRSLPMLFRMEWGCALTGSQSAVWPSSPVPEEIPRMHPGRNGKKQQRKPLREKMKPERCGDAVPRR”, the “percentage of EdU-negative” value (hTERT-HMEC; [6]) is reported as 4.772 ± 0.0079%, the “percentage of EdU-negative” value (hTERT-HMEC; [7]) is reported as 5.02 ± 0.86% and the “percentage of EdU-negative” value (MCF7; [6]) is reported as 24.4 ± 0.58%. The “percentage of EdU-negative” value (MCF7; [7]) was 25.4 ± 0.6%.

With “MPVPASWPHLPSPFLLMTLLLGRLTGVAGEDELQVIQPEKSVSVAAGESATLRCAMTSLIPVGPIMWFRGAGAGRELIYNQKEGHFPRVTTVSELTKRNNLDFSISISNITPADAGTYYCVKFRKGSPDDVEFKSGAGTELSVRAKPSAPVVSGPAVRATPEHTVSFTCESHGFSPRDITLKWFKNGNELSDFQTNVDPAGDSVSYSIHSTARVVLTRGDVHSQVICEIAHITLQGDPLRGTANLSEAIRVPPTLEVTQQPMRAENQANVTCQVSNFYPRGLQLTWLENGNVSRTETASTLIENKDGTYNWMSWLLVNTCAHRDDVVLTCQVEHDGQQAVSKSYALEISAHQKEHGSDITHEAALAPTAPLLVALLLGPKLLLVVGVSAIYICWKQKA” the “percentage of EdU-negative” value (hTERT-HMEC; [1]) was 5.34 ± 0.15%, the “percentage of EdU-negative” value (hTERT-HMEC; protein concentration 0.225 µM) was 5.42 ± 0.66% and the “percentage of EdU-negative” value (MCF7; [1]) was 24.1 ± 1.1%. For the same sequence, the “percentage of EdU-negative” value (MCF7; protein concentration 0.225 µM) was 27 ± 1.5%.

— the supplement of paper PMC11316812
